Source: patent US20160113911A1, “METHODS AND COMPOSITIONS FOR THE TREATMENT OF CANCER” (THE GENERAL HOSPITAL CORPORATION, priority 2013, published 2016)

Key:
H3K9me3 = assay: H3K9 demethylase activity of KDM4 variants in transfected cells; format: cell-based; set-up: key: + indicates active; − indicates inactive; +/− indicates partial acitivty; details: KDM4A mutations
H3K36me3 = assay: H3K36 demethylase activity of KDM4A variants in transfected cells (immunofluorescence); format: cell-based; set-up: key: + indicates active; − indicates inactive; +/− indicates partial acitivty; details: KDM4A mutations
Protocol: The indicated NHF-tagged KDM4A deletion constructs were transfected into RPE cells grown on coverslips in 10 cm dishes using X-tremeGENE 9™ DNA transfection reagent (Roche). H3K36me3 and subcellular localization were assayed by examining transfected cells (positive for HA staining; HA.11 Covance) following fixation in 3.7% PFA in PBS (Whetstine et al., 2006).
All immunofluorescence experiments were performed as in (Black et al., 2013). For the localization experiment a minimum of 50 cells were blinded and scored. For the catalytic activity, cells overexpressing a high level of KDM4A WT or SNP-A482 were analyzed in a non quantitative manner.

Molecule | H3k9 Demethylase Activity (H3K9me3) | H3k36 Demethylase Activity (H3K36me3)
2A-V1003A: KDM4A mutation (protein) MASESETLNPSARIMTFYPTMEEFRNFSRYIAYIESQGAHRAGLAKVVPPKEWKPRASYDDIDDLVIPAPIQQLVTGQSGLFTQYNIQKKAMTVREFRKIANSDKYCTPRYSEFEELERKYWKNLTFNPPIYGADVNGTLYEKHVDEWNIGRLRTILDLVEKESGITIEGVNTPYLYFGMWKTSFAWHTEDMDLYSINYLHFGEPKSWYSVPPEHGKRLERLAKGFFPGSAQSCEAFLRHKMTLISPLMLKKYGIPFDKVTQEAGEFMITFPYGYHAGFNHGFNCAESTNFATRRWIEYGKQAVLCSCRKDMVKISMDVFVRKFQPERYKLWKAGKDNTVIDHTLPTPEAAEFLKESELPPRAGNEEECPEEDMEGVEDGEEGDLKTSLAKHRIGTKRHRVCLEIPQEVSQSELFPKEDLSSEQYEMTECPAALAPVRPTHSSVRQVEDGLTFPDYSDSTEVKFEELKNVKLEEEDEEEEQAAAALDLSVNPASVGGRLVFSGSKKKSSSSLGSGSSRDSISSDSETSEPLSCRAQGQTGVLTVHSYAKGDGRVTVGEPCTRKKGSAARSFSERELAEVADEYMFSLEENKKSKGRRQPLSKLPRHHPLVLQECVSDDETSEQLTPEEEAEETEAWAKPLSQLWQNRPPNFEAEKEFNETMAQQAPHCAVCMIFQTYHQVEFGGFNQNCGNASDLAPQKQRTKPLIPEMCFTSTGCSTDINLSTPYLEEDGTSILVSCKKCSVRVHASCYGVPPAKASEDWMCSRCSANALEEDCCLCSLRGGALQRANDDRWVHVSCAVAILEARFVNIAERSPVDVSKIPLPRFKLKCIFCKKRRKRTAGCCVQCSHGRCPTAFHVSCAQAAGVMMQPDDWPFVVFITCFRHKIPNLERAKGALQSITAGQKVISKHKNGRFYQCEVVRLTTETFYEVNFDDGSFSDNLYPEDIVSQDCLQFGPPAEGEVVQVRWTDGQVYGAKFVASHPIQMYQVEFEDGSQLVVKRDDAYTLDEELPKRVKSRLSVASDMRFNEIFTEKEVKQEKKRQRVINSRYREDYIEPALYRAIME | + | +
2A-E23K: KDM4A mutation (protein) MASESETLNPSARIMTFYPTMEKFRNFSRYIAYIESQGAHRAGLAKVVPPKEWKPRASYDDIDDLVIPAPIQQLVTGQSGLFTQYNIQKKAMTVREFRKIANSDKYCTPRYSEFEELERKYWKNLTFNPPIYGADVNGTLYEKHVDEWNIGRLRTILDLVEKESGITIEGVNTPYLYFGMWKTSFAWHTEDMDLYSINYLHFGEPKSWYSVPPEHGKRLERLAKGFFPGSAQSCEAFLRHKMTLISPLMLKKYGIPFDKVTQEAGEFMITFPYGYHAGFNHGFNCAESTNFATRRWIEYGKQAVLCSCRKDMVKISMDVFVRKFQPERYKLWKAGKDNTVIDHTLPTPEAAEFLKESELPPRAGNEEECPEEDMEGVEDGEEGDLKTSLAKHRIGTKRHRVCLEIPQEVSQSELFPKEDLSSEQYEMTECPAALAPVRPTHSSVRQVEDGLTFPDYSDSTEVKFEELKNVKLEEEDEEEEQAAAALDLSVNPASVGGRLVFSGSKKKSSSSLGSGSSRDSISSDSETSEPLSCRAQGQTGVLTVHSYAKGDGRVTVGEPCTRKKGSAARSFSERELAEVADEYMFSLEENKKSKGRRQPLSKLPRHHPLVLQECVSDDETSEQLTPEEEAEETEAWAKPLSQLWQNRPPNFEAEKEFNETMAQQAPHCAVCMIFQTYHQVEFGGFNQNCGNASDLAPQKQRTKPLIPEMCFTSTGCSTDINLSTPYLEEDGTSILVSCKKCSVRVHASCYGVPPAKASEDWMCSRCSANALEEDCCLCSLRGGALQRANDDRWVHVSCAVAILEARFVNIAERSPVDVSKIPLPRFKLKCIFCKKRRKRTAGCCVQCSHGRCPTAFHVSCAQAAGVMMQPDDWPFVVFITCFRHKIPNLERAKGALQSITAGQKVISKHKNGRFYQCEVVRLTTETFYEVNFDDGSFSDNLYPEDIVSQDCLQFGPPAEGEVVQVRWTDGQVYGAKFVASHPIQMYQVEFEDGSQLVVKRDDVYTLDEELPKRVKSRLSVASDMRFNEIFTEKEVKQEKKRQRVINSRYREDYIEPALYRAIME | + | +
2A-E1032K: KDM4A mutation (protein) MASESETLNPSARIMTFYPTMEEFRNFSRYIAYIESQGAHRAGLAKVVPPKEWKPRASYDDIDDLVIPAPIQQLVTGQSGLFTQYNIQKKAMTVREFRKIANSDKYCTPRYSEFEELERKYWKNLTFNPPIYGADVNGTLYEKHVDEWNIGRLRTILDLVEKESGITIEGVNTPYLYFGMWKTSFAWHTEDMDLYSINYLHFGEPKSWYSVPPEHGKRLERLAKGFFPGSAQSCEAFLRHKMTLISPLMLKKYGIPFDKVTQEAGEFMITFPYGYHAGFNHGFNCAESTNFATRRWIEYGKQAVLCSCRKDMVKISMDVFVRKFQPERYKLWKAGKDNTVIDHTLPTPEAAEFLKESELPPRAGNEEECPEEDMEGVEDGEEGDLKTSLAKHRIGTKRHRVCLEIPQEVSQSELFPKEDLSSEQYEMTECPAALAPVRPTHSSVRQVEDGLTFPDYSDSTEVKFEELKNVKLEEEDEEEEQAAAALDLSVNPASVGGRLVFSGSKKKSSSSLGSGSSRDSISSDSETSEPLSCRAQGQTGVLTVHSYAKGDGRVTVGEPCTRKKGSAARSFSERELAEVADEYMFSLEENKKSKGRRQPLSKLPRHHPLVLQECVSDDETSEQLTPEEEAEETEAWAKPLSQLWQNRPPNFEAEKEFNETMAQQAPHCAVCMIFQTYHQVEFGGFNQNCGNASDLAPQKQRTKPLIPEMCFTSTGCSTDINLSTPYLEEDGTSILVSCKKCSVRVHASCYGVPPAKASEDWMCSRCSANALEEDCCLCSLRGGALQRANDDRWVHVSCAVAILEARFVNIAERSPVDVSKIPLPRFKLKCIFCKKRRKRTAGCCVQCSHGRCPTAFHVSCAQAAGVMMQPDDWPFVVFITCFRHKIPNLERAKGALQSITAGQKVISKHKNGRFYQCEVVRLTTETFYEVNFDDGSFSDNLYPEDIVSQDCLQFGPPAEGEVVQVRWTDGQVYGAKFVASHPIQMYQVEFEDGSQLVVKRDDVYTLDEELPKRVKSRLSVASDMRFNEIFTKKEVKQEKKRQRVINSRYREDYIEPALYRAIME | + | +
2A-D1023Y: KDM4A mutation (protein) MASESETLNPSARIMTFYPTMEEFRNFSRYIAYIESQGAHRAGLAKVVPPKEWKPRASYDDIDDLVIPAPIQQLVTGQSGLFTQYNIQKKAMTVREFRKIANSDKYCTPRYSEFEELERKYWKNLTFNPPIYGADVNGTLYEKHVDEWNIGRLRTILDLVEKESGITIEGVNTPYLYFGMWKTSFAWHTEDMDLYSINYLHFGEPKSWYSVPPEHGKRLERLAKGFFPGSAQSCEAFLRHKMTLISPLMLKKYGIPFDKVTQEAGEFMITFPYGYHAGFNHGFNCAESTNFATRRWIEYGKQAVLCSCRKDMVKISMDVFVRKFQPERYKLWKAGKDNTVIDHTLPTPEAAEFLKESELPPRAGNEEECPEEDMEGVEDGEEGDLKTSLAKHRIGTKRHRVCLEIPQEVSQSELFPKEDLSSEQYEMTECPAALAPVRPTHSSVRQVEDGLTFPDYSDSTEVKFEELKNVKLEEEDEEEEQAAAALDLSVNPASVGGRLVFSGSKKKSSSSLGSGSSRDSISSDSETSEPLSCRAQGQTGVLTVHSYAKGDGRVTVGEPCTRKKGSAARSFSERELAEVADEYMFSLEENKKSKGRRQPLSKLPRHHPLVLQECVSDDETSEQLTPEEEAEETEAWAKPLSQLWQNRPPNFEAEKEFNETMAQQAPHCAVCMIFQTYHQVEFGGFNQNCGNASDLAPQKQRTKPLIPEMCFTSTGCSTDINLSTPYLEEDGTSILVSCKKCSVRVHASCYGVPPAKASEDWMCSRCSANALEEDCCLCSLRGGALQRANDDRWVHVSCAVAILEARFVNIAERSPVDVSKIPLPRFKLKCIFCKKRRKRTAGCCVQCSHGRCPTAFHVSCAQAAGVMMQPDDWPFVVFITCFRHKIPNLERAKGALQSITAGQKVISKHKNGRFYQCEVVRLTTETFYEVNFDDGSFSDNLYPEDIVSQDCLQFGPPAEGEVVQVRWTDGQVYGAKFVASHPIQMYQVEFEDGSQLVVKRDDVYTLDEELPKRVKSRLSVASYMRFNEIFTEKEVKQEKKRQRVINSRYREDYIEPALYRAIME | + | +
